From the supplement of paper PMC9112550, “Optimization of the antimicrobial peptide Bac7 by deep mutational scanning” (BMC Biology, 2022)

system: Escherichia coli TOP10; test: shrunken log2 fold change of peptide-encoding DNA abundance (4.5 h post-induction vs induction); higher = less antimicrobial activity (less host growth inhibition); conditions: time post-induction: 4.5 h; library: site-saturation at positions 5, 18, 19, 20
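Also: peptides expressed intracellularly from a pBAD plasmid library in pooled LB shake-flask culture, induced with 0.3% L-arabinose, DNA abundance read by NGS, three biological replicates, DESeq2 with apeglm shrinkage.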

| Sequence | shrunken log2 fold change |
| --- | --- |
| RRIRTRPPRLPRPRPRPKLDPRP | 0.2 |
| RRIRIRPPRLPRPRPRPLYQPRP | -0.904 |
| RRIRIRPPRLPRPRPRPRCKPRP | -0.35 |
| RRIRVRPPRLPRPRPRPGGYPRP | 0.0682 |
| RRIRLRPPRLPRPRPRPCYVPRP | -1.08 |
| RRIRCRPPRLPRPRPRPYKDPRP | -0.492 |
| RRIRSRPPRLPRPRPRPYMGPRP | -0.776 |
| RRIRSRPPRLPRPRPRPMSSPRP | -0.313 |
| RRIRVRPPRLPRPRPRPCKIPRP | -0.376 |
| RRIRKRPPRLPRPRPRPEFTPRP | 0.738 |
| RRIRVRPPRLPRPRPRPNSFPRP | -0.0668 |
| RRIRQRPPRLPRPRPRPAENPRP | 0.0325 |
| RRIRHRPPRLPRPRPRPILCPRP | -0.182 |
| RRIRFRPPRLPRPRPRPSMHPRP | -0.291 |
| RRIRLRPPRLPRPRPRPHHAPRP | -0.058 |
| RRIRQRPPRLPRPRPRPTHAPRP | 0.437 |
| RRIRPRPPRLPRPRPRPEPYPRP | -0.309 |
| RRIRTRPPRLPRPRPRPPLCPRP | 0.0694 |
| RRIRLRPPRLPRPRPRPHLCPRP | -0.355 |
| RRIRKRPPRLPRPRPRPHNDPRP | 0.00261 |
| RRIRARPPRLPRPRPRPTEGPRP | 0.941 |
| RRIRGRPPRLPRPRPRPAGEPRP | 0.479 |
| RRIRRRPPRLPRPRPRPDHKPRP | 0.027 |
| RRIRMRPPRLPRPRPRPPFYPRP | -0.182 |
| RRIRPRPPRLPRPRPRPFEFPRP | 0.0458 |

| Sequence | shrunken log2 fold change |
| --- | --- |
| RRIRTRPPRLPRPRPRPDFNPRP | -0.177 |
| RRIRPRPPRLPRPRPRPHSAPRP | 0.31 |
| RRIRIRPPRLPRPRPRPVQAPRP | 0.0348 |
| RRIRTRPPRLPRPRPRPETDPRP | -0.0144 |
| RRIRKRPPRLPRPRPRPGAFPRP | 0.369 |
| RRIRLRPPRLPRPRPRPQVCPRP | -0.00713 |
| RRIRMRPPRLPRPRPRPQIMPRP | -0.0466 |
| RRIRSRPPRLPRPRPRPLTQPRP | 0.243 |
| RRIRCRPPRLPRPRPRPTIVPRP | -0.0931 |
| RRIRWRPPRLPRPRPRPYLHPRP | -0.639 |
| RRIRRRPPRLPRPRPRPRWCPRP | 0.0597 |
| RRIRHRPPRLPRPRPRPALFPRP | -0.0554 |
| RRIRTRPPRLPRPRPRPGHYPRP | -0.137 |
| RRIRMRPPRLPRPRPRPHQMPRP | 0.126 |
| RRIRSRPPRLPRPRPRPPLGPRP | 0.399 |
| RRIRFRPPRLPRPRPRPYKVPRP | -0.614 |
| RRIRDRPPRLPRPRPRPMPCPRP | 0.000981 |
| RRIRPRPPRLPRPRPRPGTYPRP | -0.147 |
| RRIRLRPPRLPRPRPRPMVTPRP | 0.0098 |
| RRIRLRPPRLPRPRPRPLSNPRP | -0.782 |
| RRIRTRPPRLPRPRPRPHHYPRP | -0.46 |
| RRIRSRPPRLPRPRPRPAWIPRP | -0.0375 |
| RRIRHRPPRLPRPRPRPWTMPRP | -0.344 |
| RRIRIRPPRLPRPRPRPTSFPRP | -0.11 |
| RRIRHRPPRLPRPRPRPFTTPRP | -0.0869 |

| Sequence | shrunken log2 fold change |
| --- | --- |
| RRIRHRPPRLPRPRPRPHIFPRP | -0.308 |
| RRIRERPPRLPRPRPRPTLNPRP | -0.152 |
| RRIRTRPPRLPRPRPRPVSRPRP | 0.464 |
| RRIRRRPPRLPRPRPRPHHRPRP | 0.0911 |
| RRIRPRPPRLPRPRPRPWMFPRP | -0.306 |
| RRIRYRPPRLPRPRPRPKQTPRP | 0.283 |
| RRIRIRPPRLPRPRPRPTMQPRP | 0.0261 |
| RRIRERPPRLPRPRPRPYYIPRP | -0.262 |
| RRIRDRPPRLPRPRPRPWATPRP | 0.0691 |
| RRIRGRPPRLPRPRPRPMNLPRP | 0.00442 |
| RRIRCRPPRLPRPRPRPSVQPRP | -0.579 |
| RRIRGRPPRLPRPRPRPENCPRP | 0.111 |
| RRIRYRPPRLPRPRPRPIHKPRP | -0.6 |
| RRIRNRPPRLPRPRPRPSVMPRP | -0.281 |
| RRIRCRPPRLPRPRPRPGKFPRP | -0.188 |
| RRIRNRPPRLPRPRPRPWAFPRP | -0.014 |
| RRIRLRPPRLPRPRPRPTCFPRP | -0.156 |
| RRIRPRPPRLPRPRPRPNAMPRP | -0.324 |
| RRIRCRPPRLPRPRPRPRRLPRP | 0.133 |
| RRIRNRPPRLPRPRPRPKAFPRP | -0.0608 |
| RRIRKRPPRLPRPRPRPGCWPRP | 0.466 |
| RRIRHRPPRLPRPRPRPMCNPRP | -0.186 |
| RRIRWRPPRLPRPRPRPHHMPRP | -0.592 |
| RRIRQRPPRLPRPRPRPDQLPRP | -0.263 |
| RRIRLRPPRLPRPRPRPGPVPRP | 0.753 |

| Sequence | shrunken log2 fold change |
| --- | --- |
| RRIRRRPPRLPRPRPRPRGAPRP | 0.8 |
| RRIRERPPRLPRPRPRPHFMPRP | -0.221 |
| RRIRPRPPRLPRPRPRPCRFPRP | 0.086 |
| RRIRTRPPRLPRPRPRPLNQPRP | -0.417 |
| RRIRYRPPRLPRPRPRPNVIPRP | -0.338 |
| RRIRSRPPRLPRPRPRPHRIPRP | -0.706 |
| RRIRVRPPRLPRPRPRPVCCPRP | 0.0608 |
| RRIRGRPPRLPRPRPRPCTAPRP | 0.875 |
| RRIRLRPPRLPRPRPRPTIAPRP | -0.183 |
| RRIRMRPPRLPRPRPRPFPEPRP | 0.562 |
| RRIRIRPPRLPRPRPRPVDWPRP | -0.0226 |
| RRIRFRPPRLPRPRPRPVQSPRP | -0.16 |
| RRIRSRPPRLPRPRPRPKGQPRP | 0.0791 |
| RRIRSRPPRLPRPRPRPHSMPRP | -0.521 |
| RRIRNRPPRLPRPRPRPTKWPRP | -0.2 |
| RRIRRRPPRLPRPRPRPKPDPRP | 0.493 |
| RRIRTRPPRLPRPRPRPMFEPRP | -0.171 |
| RRIRQRPPRLPRPRPRPNPLPRP | -0.0379 |
| RRIRYRPPRLPRPRPRPRNVPRP | -0.324 |
| RRIRRRPPRLPRPRPRPFASPRP | -0.0314 |
| RRIRERPPRLPRPRPRPGCKPRP | 0.0591 |
| RRIRNRPPRLPRPRPRPMIWPRP | -0.166 |
| RRIRDRPPRLPRPRPRPKWFPRP | -0.0316 |
| RRIRGRPPRLPRPRPRPKESPRP | 0.981 |
| RRIRARPPRLPRPRPRPNFCPRP | 0.24 |

| Sequence | shrunken log2 fold change |
| --- | --- |
| RRIRHRPPRLPRPRPRPVMCPRP | -0.175 |
| RRIRVRPPRLPRPRPRPVQHPRP | -0.0336 |
| RRIRHRPPRLPRPRPRPCGQPRP | 0.015 |
| RRIRVRPPRLPRPRPRPWDWPRP | 0.163 |
| RRIRMRPPRLPRPRPRPTNCPRP | 0.0955 |
| RRIRMRPPRLPRPRPRPKEKPRP | 0.0504 |
| RRIRVRPPRLPRPRPRPWMVPRP | -0.208 |
| RRIRERPPRLPRPRPRPVMMPRP | -0.144 |
| RRIRMRPPRLPRPRPRPTKGPRP | 0.258 |
| RRIRSRPPRLPRPRPRPQGEPRP | -0.0953 |
| RRIRSRPPRLPRPRPRPDCNPRP | 0.265 |
| RRIRHRPPRLPRPRPRPMVGPRP | -0.0276 |
| RRIRFRPPRLPRPRPRPKDHPRP | -0.179 |
| RRIRFRPPRLPRPRPRPTNRPRP | -0.346 |
| RRIRTRPPRLPRPRPRPMITPRP | -0.0731 |
| RRIRMRPPRLPRPRPRPWLYPRP | -0.0206 |
| RRIRTRPPRLPRPRPRPLCTPRP | -0.106 |
| RRIRARPPRLPRPRPRPRNHPRP | 0.0958 |
| RRIRCRPPRLPRPRPRPDEIPRP | 0.146 |
| RRIRYRPPRLPRPRPRPGAMPRP | 0.986 |
| RRIRIRPPRLPRPRPRPDWFPRP | 0.0564 |
| RRIRTRPPRLPRPRPRPDCIPRP | -0.0428 |
| RRIRMRPPRLPRPRPRPQSFPRP | -0.199 |
| RRIRYRPPRLPRPRPRPVGNPRP | -0.0681 |
| RRIRNRPPRLPRPRPRPKASPRP | -0.127 |

| Sequence | shrunken log2 fold change |
| --- | --- |
| RRIRTRPPRLPRPRPRPMKRPRP | 0.298 |
| RRIRDRPPRLPRPRPRPLAVPRP | 0.887 |
| RRIRPRPPRLPRPRPRPAWRPRP | 0.645 |
| RRIRERPPRLPRPRPRPFSEPRP | 0.0188 |
| RRIRNRPPRLPRPRPRPLKTPRP | -0.0746 |
| RRIRDRPPRLPRPRPRPGMHPRP | 0.0286 |
| RRIRERPPRLPRPRPRPKADPRP | -0.0439 |
| RRIRIRPPRLPRPRPRPCMWPRP | -1.51 |
| RRIRTRPPRLPRPRPRPRHSPRP | -0.106 |
| RRIRYRPPRLPRPRPRPITFPRP | -0.864 |
| RRIRGRPPRLPRPRPRPGMVPRP | 1.46 |
| RRIRQRPPRLPRPRPRPYSWPRP | 0.0415 |
| RRIRWRPPRLPRPRPRPSKKPRP | 0.0769 |
| RRIRVRPPRLPRPRPRPCARPRP | -0.0405 |
| RRIRGRPPRLPRPRPRPNGLPRP | 0.377 |
| RRIRGRPPRLPRPRPRPSKYPRP | 0.00351 |
| RRIRERPPRLPRPRPRPVRNPRP | -0.41 |
| RRIRQRPPRLPRPRPRPQIKPRP | -0.498 |
| RRIRGRPPRLPRPRPRPSWPPRP | 0.384 |
| RRIRTRPPRLPRPRPRPPLNPRP | -0.183 |
| RRIRCRPPRLPRPRPRPNIYPRP | -0.588 |
| RRIRWRPPRLPRPRPRPMFFPRP | 0.111 |
| RRIRVRPPRLPRPRPRPFYVPRP | 1.07 |
| RRIRVRPPRLPRPRPRPGERPRP | 0.674 |
| RRIRQRPPRLPRPRPRPFEKPRP | -0.0519 |
